# Substitutions are numbered along the chain they refer to. In names and notes the source's numbering stands. Several values for one entry are separate records, joined by “and”; a condition that tells them apart may be missing. Equal entries are not always repeated. Entries after “also recorded” stand apart in the source; their conditions may differ. Where two headings read alike, the source gives them in different places.
# B1: Construct CC: SEQ ID NO 813: m IL2-2x(GHHPH)-MMPcs1-2x(G4S)-mIL2Ra(1-215)-mu IgG1 Fc (protein)
# chain: APTSSSTSSSTAEAQQQQQQQQQQQQHLEQLLMDLQELLSRMENYRNLKLPRMLTFKFYLPKQATELKDLQCLEDELGPLRHVLDLTQSKSFQLEDAENFISNIRVTVVKLKGSDNTFECQFDDESATVVDFLRRWIAFCQSIISTSPQGHHPHGHHPHGPLGVRGGGGGSGGGGSELCLYDPPEVPNATFKALSYKNGTILNCECKRGFRRLKELVYMRCLGNSWSSNCQCTSNSHDKSRKQVTAQLEHQKEQQTTTDMQKPTQSMHQENLTGHCREPPPWKHEDSKRIYHFVEGQSVHYECIPGYKALQRGPAISICKMKCGKTGWTQPQLTCVDEREHHRFLASEESQGSRNSSPESETSCPITTTDFPQPTETTAMTETFVLTMEYKGCKPCICTVPEVSSVFIFPPKPKDVLTITLTPKVTCVVVDISKDDPEVQFSWFVDDVEVHTAQTQPREEQFNSTFRSVSELPIMHQDWLNGKEFKCRVNSAAFPAPIEKTISKTKGRPKAPQVYTIPPPKEQMAKDKVSLTCMITDFFPEDITVEWQWNGQPAENYKNTQPIMDTDGSYFVYSKLNVQKSNWEAGNTFTCSVLHEGLHNHHTEKSLSHSPGK
# B2: Construct GG: SEQ ID NO 817: m IL2-SGG-KLWVLPK-MMPcs1-2x(G4S)-mIL2Ra(1-215)-mu IgG1 Fc (protein)
# chain: B1 chain with G150S, H151G, H152G, P153K, H154L, G155W, H156V, H157L, H159K
# B3: Construct II: SEQ ID NO 819: m IL2-LHERHLNNN-MMPcs1-2x(G4S)-mIL2Ra(1-215)-mu IgG1 Fc (protein)
# chain: B1 chain with G150S, H151L, P153E, H154R, G155H, H156L, H157N, P158N, H159N
# How the values were obtained:
# fibronectin = fibronectin (Homo sapiens, UniProt P02751); settings: Note 1, cited from earlier work
# Sequence of fibronectin (P02751 32-2477, species assumed): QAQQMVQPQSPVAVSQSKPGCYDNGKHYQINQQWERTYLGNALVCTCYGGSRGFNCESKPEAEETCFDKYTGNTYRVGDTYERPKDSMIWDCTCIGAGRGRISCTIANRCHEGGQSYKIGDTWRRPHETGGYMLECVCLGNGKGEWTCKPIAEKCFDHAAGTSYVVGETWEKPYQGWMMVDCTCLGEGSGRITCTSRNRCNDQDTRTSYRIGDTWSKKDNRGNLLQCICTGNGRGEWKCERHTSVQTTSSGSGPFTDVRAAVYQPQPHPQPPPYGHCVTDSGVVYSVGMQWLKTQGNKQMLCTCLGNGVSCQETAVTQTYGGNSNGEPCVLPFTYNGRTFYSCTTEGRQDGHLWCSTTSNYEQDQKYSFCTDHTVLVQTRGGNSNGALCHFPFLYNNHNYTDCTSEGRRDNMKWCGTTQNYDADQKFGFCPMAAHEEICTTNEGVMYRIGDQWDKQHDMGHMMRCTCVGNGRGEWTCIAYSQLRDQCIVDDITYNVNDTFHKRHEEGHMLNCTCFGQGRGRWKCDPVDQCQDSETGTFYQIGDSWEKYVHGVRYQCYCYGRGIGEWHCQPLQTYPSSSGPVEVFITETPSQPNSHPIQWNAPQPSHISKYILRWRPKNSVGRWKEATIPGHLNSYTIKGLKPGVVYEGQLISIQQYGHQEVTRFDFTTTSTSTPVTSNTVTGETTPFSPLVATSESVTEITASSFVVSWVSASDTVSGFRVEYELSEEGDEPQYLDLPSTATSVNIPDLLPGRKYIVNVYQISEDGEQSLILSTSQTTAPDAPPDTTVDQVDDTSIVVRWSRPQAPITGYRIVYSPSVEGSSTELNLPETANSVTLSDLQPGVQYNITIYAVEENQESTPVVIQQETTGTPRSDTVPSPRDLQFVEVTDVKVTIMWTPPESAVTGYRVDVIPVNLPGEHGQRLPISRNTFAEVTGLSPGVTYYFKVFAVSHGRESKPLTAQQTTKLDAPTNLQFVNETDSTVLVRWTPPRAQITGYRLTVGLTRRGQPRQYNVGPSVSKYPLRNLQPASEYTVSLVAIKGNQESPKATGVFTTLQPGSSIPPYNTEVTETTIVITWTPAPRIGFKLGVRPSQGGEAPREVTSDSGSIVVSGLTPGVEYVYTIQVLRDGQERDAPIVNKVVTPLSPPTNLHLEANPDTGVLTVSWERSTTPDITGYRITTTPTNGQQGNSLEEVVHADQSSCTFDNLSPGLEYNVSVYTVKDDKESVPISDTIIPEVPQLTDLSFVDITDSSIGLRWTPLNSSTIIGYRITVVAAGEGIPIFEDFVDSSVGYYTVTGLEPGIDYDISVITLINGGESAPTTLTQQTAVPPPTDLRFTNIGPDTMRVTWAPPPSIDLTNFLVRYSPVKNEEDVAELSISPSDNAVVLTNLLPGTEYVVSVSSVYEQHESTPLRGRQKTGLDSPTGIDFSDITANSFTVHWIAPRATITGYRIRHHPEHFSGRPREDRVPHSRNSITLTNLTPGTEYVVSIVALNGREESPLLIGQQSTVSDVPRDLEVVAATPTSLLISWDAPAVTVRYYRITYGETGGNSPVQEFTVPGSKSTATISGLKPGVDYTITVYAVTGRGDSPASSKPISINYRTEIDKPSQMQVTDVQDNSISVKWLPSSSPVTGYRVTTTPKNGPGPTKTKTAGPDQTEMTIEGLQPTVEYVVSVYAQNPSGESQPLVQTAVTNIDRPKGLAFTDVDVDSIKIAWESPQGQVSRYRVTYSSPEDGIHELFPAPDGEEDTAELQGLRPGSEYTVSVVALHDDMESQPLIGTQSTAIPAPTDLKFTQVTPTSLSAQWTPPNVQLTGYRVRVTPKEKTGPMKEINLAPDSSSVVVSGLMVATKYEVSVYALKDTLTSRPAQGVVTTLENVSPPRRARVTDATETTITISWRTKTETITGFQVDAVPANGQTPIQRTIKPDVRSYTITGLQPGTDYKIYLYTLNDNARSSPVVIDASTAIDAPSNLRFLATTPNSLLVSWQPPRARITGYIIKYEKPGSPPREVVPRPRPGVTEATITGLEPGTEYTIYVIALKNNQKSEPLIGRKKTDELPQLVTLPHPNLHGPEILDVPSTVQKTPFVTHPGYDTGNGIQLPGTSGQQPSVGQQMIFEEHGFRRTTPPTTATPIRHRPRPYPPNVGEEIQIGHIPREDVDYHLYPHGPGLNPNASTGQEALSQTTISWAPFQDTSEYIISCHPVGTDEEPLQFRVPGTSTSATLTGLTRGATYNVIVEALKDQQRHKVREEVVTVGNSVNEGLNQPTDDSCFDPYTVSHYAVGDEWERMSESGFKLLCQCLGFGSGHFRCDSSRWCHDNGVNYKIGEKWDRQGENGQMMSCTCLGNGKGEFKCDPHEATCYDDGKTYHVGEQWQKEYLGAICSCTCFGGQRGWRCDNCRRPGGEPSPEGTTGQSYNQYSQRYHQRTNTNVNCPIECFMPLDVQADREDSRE
# HEK-Blue™ IL-2 cells = experiment: HEK-Blue IL2 reporter assay (SEAP, OD630); format: cell-based; settings: Table 5C
# Description: Recombinant MMP9 and/or MMP2 (R&D Systems) was first activated with p-aminophenylmercuric acetate and this activated protease or equivalent amount of activating solution without the protease was used to digest or mock digest the fusion protein for 1 hr, 2 hr, 4 hr and overnight (18-22 hr) at 37 C. Cleavage assays are set up in TCNB buffer: 50 mM Tris, 10 mM CaCl2), 150 mM NaCl, 0.05% Brij-35 (w/v), pH 7.5. Digested protein was aliquoted and stored at −80° C. prior to testing. Aliquots of digests were subsequently analyzed by SDS-PAGE followed by Western blotting to evaluate the extent of cleavage. Digests were also assessed in functional assays such as CTLL-2 proliferation and HEK-Blue Interleukin reporter assays. As shown in FIGS. 2A-E, essentially complete cleavage by MMP9 protease of the fusion proteins with functional site is seen after overnight incubation. In contrast, proteins containing a scrambled MMP cleavage site are not cut (FIG. 2E). HEK-Blue™ IL-2 cells are specifically designed to monitor the activation of the JAK-STAT pathway induced by IL-2. Indeed, stimulation with human or murine IL-2 triggers the JAK/STAT5 pathway and induces secreted embryonic alkaline phosphatase (SEAP) production. SEAP can be readily monitored when using QUANTI-Blue™, a SEAP detection medium. These cells respond to human and murine IL-2. For the HEK Blue assay, untreated and digested samples are titrated and added to 50 000 HEK Blue cells per well in 200 ul medium in a 96-well plate and incubated at 37C in 5% CO2 for 20-24 hr. The following day, levels of SEAP are measured by adding 20 uL of cell supernatant to QuantiBlue reagent, followed by 1-3 h incubation at 37C and reading absorbance at 630 nm. FIGS. 3C-J, 3Q-Y and Table 5B-5C show results obtained from IL2 fusion proteins tested in HEK Blue IL2 assay.
# heparin = experiment: IL-2 fusion protein plate binding assay to Heparin-BSA conjugate
# Description: 96-well plates were coated with 25 ug/mL of Heparin-BSA conjugate (provided by Dr. Mueller, Boerhinger Ingelheim) or control BSA for 18-22 h at room temperature on shaker (350 rpm). After washing, wells are blocked with PBS-0.05% Tween 20/1% BSA for 90 min, then fusion proteins are titrated in 1% BSA/PBS-0.05% Tween 20 pH 7.5 and/or pH 6 and added for 2 hr at room temperature with shaking. After washing, an anti-mouse IL-2 biotin-labelled detection antibody (JES6-5H4, ThermoFisher) is added and binding is detected using Ultra Strepavidin HIRP (ThermoFisher). The plate was developed by adding the chromogenic tetramethylbenzidine substrate (Ultra TMB, ThermoFisher). The reaction is stopped by addition of 0.5M H2SO4 and the absorbance is read at 450-650 nm.
# [1] = Drug and IL-2 levels in B16F10 tumor lysates by ELISA; format: in vivo, mice; settings: for IL-2 levels in treated tumors compared to Construct B treated tumors: free IL-2 calculated by subtraction, 24 h after last dose
# Description: (§1) We developed an ELISA assay to detect and quantify fusion proteins comprising IL-2 and IL-2Rα moieties. Wells of a 96-well plate are coated overnight with 100 uL of a rat anti-mouse IL-2 monoclonal antibody (JES6-1A12; ThermoFisher) at […] in PBS. After washing, wells are blocked with TBS/0.05% Tween 20/1% BSA, then fusion proteins and/or unknown biological samples are added for 1 hr at room temperature. After washing, an anti-mouse IL-2Rα biotin-labelled detection antibody (BAF2438, R&D systems) is added and binding is detected using Ultra Strepavidin HRP (ThermoFisher). The ELISA plate was developed by adding the chromogenic tetramethylbenzidine substrate (Ultra TMB, ThermoFisher). The reaction is stopped by addition of 0.5M H2SO4 and the absorbance is read at 450-650 nm.
# We developed a second ELISA assay to detect and quantify mouse IL-2 and/or fusion proteins comprising an IL-2 moiety. Wells of a 96-well plate are coated overnight with 100 uL of a rat anti-mouse IL-2 monoclonal antibody (JES6-1A12; ThermoFisher) at […] in PBS. After washing, wells are blocked with TBS/0.05% Tween 20/1% BSA, then fusion proteins and/or unknown biological samples are added for 1 hr at room temperature. After washing, an anti-mouse IL-2 biotin-labelled detection antibody (JES6-5H4, ThermoFisher) is added and binding is detected using Ultra Strepavidin HRP (ThermoFisher). The ELISA plate was developed by adding the chromogenic tetramethylbenzidine substrate (Ultra TMB, ThermoFisher). The reaction is stopped by addition of 0.5M H2SO4 and the absorbance is read at 450-650 nm. This assay is able to simultaneously detect both free mouse IL-2 as well as mouse IL-2 in the context of pro-drug fusion proteins.
# We quantified levels of full-length IL2-IL2Ra fusion proteins and IL-2 in tumor samples collected during pre-clinical efficacy studies comparing Construct B and retention linker IL-2 fusion drugs (see example 17).
# Tumors (n=3 per group) were collected 24 h after the last dose injection, flash frozen and stored at −80C until further processing. Tumor lysates were generated using tissue extraction reagent (ThermoFisher) supplemented with protease and phosphatase inhibitors and standard techniques and protein concentrations were determined using the BCA assay (Pierce).
# Lysates were tested with in-house ELISAs to measure full-length IL-2 fusion proteins (IL-2 capture/IL-2Rα detection) and IL-2 fusion proteins+free IL-2 (IL-2 capture/IL-2 detection). Free IL-2 levels in tumor were calculated by subtracting drug levels from the drug+IL-2 data set. Results were normalized to 1 mg of tumor lysate and mean values are shown in FIG. 15C-H. Levels of Construct CC (20 mg/kg dose) in tumor are roughly 3-fold higher compared to Construct B levels, despite Construct B being dosed at 40 mg/kg (FIG. C). […] Likewise, IL-2 levels in Construct CC, Construct GG and Construct II treated tumors are elevated compared to Construct B treated tumors (FIG. 15E/H). This implies that next generation retention linker technology is able to retain in TME both full-length drug and released IL-2 post-cleavage.
# [2] = Full-length drug levels in serum by ELISA; format: in vivo, mice; settings: 24 hrs after dosing; for drug levels in serum relative to Construct B: 10 mg/kg cohort
# Description: as §1
# Additional serum samples collected at Day 17 (Construct B 20 mg/kg) and Day 21 (Construct Y 20 mg/kg), 4 days and 8 days respectively after the last IV injection, were assayed for full-length IL-2 fusion drug.
# collagen = experiment: IL-2 fusion protein collagen-agarose pulldown (immunoblot quantitation); format: binding; settings: for Bound: blot quantitation, collagen-agarose bound fraction; for Normalized: bound fraction relative to Construct B (fold); for Bound (% input): fraction bound to collagen-agarose; for binding to collagen-agarose beads vs control agarose beads: pulldown 18-22 h at 4C
# Description: To test binding to collagen, a pulldown assay using agarose cross-linked to collagen (Sigma) was performed. IL-2 fusion proteins were incubated with collagen-agarose or control agarose beads for 18-22 h at 4C with gentle rotation in 1% BSA/PBS-0.05% Tween 20. After washing, proteins bound to the beads were eluted by resuspending beads in SDS sample buffer (Life Technologies). Bound proteins were then separated by SDS-PAGE on 4-12% BisTris gradient gel followed by immunoblotting with goat anti-mouse IL-2 polyclonal antibody (AF-402-NA; R&D systems). Donkey Anti-goat RP-conjugated antibody was used for detection (Jackson Immuno Research, West Grove, PA) and the blot was developed using the SuperSignal West Femto Maximum sensitivity detection reagent (ThermoFisher) following the manufacturer's recommendations.
# B16F10 melanoma = experiment: In vivo efficacy of retention linker IL-2 drugs in B16F10 syngeneic model (Example 17); design: species or system mice; settings: for TGI (%) D 15: 10 mg/kg IV Q3D, 5 doses; for TGI (%) D 20: 10 mg/kg, 7 days following the fifth dose
# Description: In a first efficacy study, C57BL/6 mice were subcutaneously inoculated with B16F10 melanoma cells and when the average tumor volume reached on average 70-90 mm^3, animals were randomized into 5 groups based on tumor volumes (n=6 mice per treatment group). Mice were dosed intravenously every 3 days (Q3D) for a total of 5 doses according to following design:
# In a second efficacy study in the same model, C57BL/6 mice were subcutaneously inoculated with B16F10 melanoma cells and when the average tumor volume reached on average 70-90 mm^3, animals were randomized into 5 groups based on tumor volumes (n=6 mice per treatment group). Mice were dosed intravenously every 3 days (Q3D) for a total of 5 doses according to following design:
# On Day 20, mice received an additional dose of drug, animals were sacrificed 24 hrs later and tissues and blood (processed to serum) were collected and stored at −80C for further testing. […] This is most likely due to the higher levels of both circulating drugs in serum and resident drug in TME, which can exert prolonged anti-tumor activity even after an extended dosing holiday.
# [3] = pH-sensitive sequences derived from thrombospondin
# [4] = cleaved with MMP9, read-out: +MMP EC50
molecule,measurement,setting,value
680 (QFGGHNSVDFEEDT) [Construct 680],affinity (Binds to Fibronectin),fibronectin; FAB D3 fragments,non-binding control
655 (KRFKQDGGWSHWSP) [Construct 655],affinity (Binds to Fibronectin),fibronectin; [3],derived from thrombospondin (medium affinity)
654 (KRFKQDGGWSHWSPWSS) [Construct 654],affinity (Binds to Fibronectin),fibronectin; [3],derived from thrombospondin (low affinity)
656 (GGWSHWSPWSS) [Construct 656],affinity (Binds to Fibronectin),fibronectin; [3],derived from thrombospondin (medium affinity)
B1,EC50,HEK-Blue™ IL-2 cells; [4],13 pM
same,EC50,"HEK-Blue™ IL-2 cells; uncleaved, read-out: −MMP EC50",660 pM
same,EC50,heparin; acidic pH,10000 pM
same,heparin binding (qualitative),"heparin; pH 6 vs pH 7.5, plate assay",bind heparin in dose-dependent manner and with higher affinity than Construct B; also recorded: preferentially binds heparin at acidic pH
same,drug levels in tumor relative to Construct B (40 mg/kg),"[1]; Construct CC 20 mg/kg, tumors 24 h after last dose",roughly 3 fold
same,IL-2 levels in treated tumors compared to Construct B treated tumors,[1],elevated
same,circulating drug levels compared with Construct B (40 mg/kg),[2]; Construct CC 20 mg/kg,roughly similar
B2,EC50,HEK-Blue™ IL-2 cells; [4],7.2 pM
same,EC50,"HEK-Blue™ IL-2 cells; uncleaved, read-out: −MMP EC50",140 pM
same,Bound,collagen,5191
same,Normalized,collagen,2.5
same,Bound (% input),collagen,0.7%
same,binding to collagen-agarose beads vs control agarose beads,collagen,specifically bound by collagen-agarose beads
same,"drug level in tumor, comparison in 10 mg/kg dosing cohort","[1]; 10 mg/kg, tumors 24 h after last dose",highest levels
same,IL-2 levels in treated tumors compared to Construct B treated tumors,[1],elevated
same,drug levels in serum relative to Construct B,[2],roughly 5 fold
same,TGI (%) D 15,B16F10 melanoma,57% and 57.18%
same,TGI (%) D 20,B16F10 melanoma,64.70%
B3,EC50,HEK-Blue™ IL-2 cells; [4],9 pM
same,EC50,"HEK-Blue™ IL-2 cells; uncleaved, read-out: −MMP EC50",489 pM
same,Bound,collagen,2277
same,Normalized,collagen,1.4
same,Bound (% input),collagen,0.4%
same,binding to collagen-agarose beads vs control agarose beads,collagen,specifically bound by collagen-agarose beads
same,IL-2 levels in treated tumors compared to Construct B treated tumors,[1],elevated
same,drug levels in serum relative to Construct B,[2],~3 fold
same,TGI (%) D 15,B16F10 melanoma,57% and 57.68%
same,TGI (%) D 20,B16F10 melanoma,68.52%
